The values that follow come from US7029865.

Some targets named below: hMC-4R (human), P32245; hMC-5R (human), P33032; hMC-3R (human), P41968.
Assay in all cases: competition
Holding throughout (conditions): modification not given

The target in another test is T1, rhMC-4R (rhesus monkey).
T1 chain: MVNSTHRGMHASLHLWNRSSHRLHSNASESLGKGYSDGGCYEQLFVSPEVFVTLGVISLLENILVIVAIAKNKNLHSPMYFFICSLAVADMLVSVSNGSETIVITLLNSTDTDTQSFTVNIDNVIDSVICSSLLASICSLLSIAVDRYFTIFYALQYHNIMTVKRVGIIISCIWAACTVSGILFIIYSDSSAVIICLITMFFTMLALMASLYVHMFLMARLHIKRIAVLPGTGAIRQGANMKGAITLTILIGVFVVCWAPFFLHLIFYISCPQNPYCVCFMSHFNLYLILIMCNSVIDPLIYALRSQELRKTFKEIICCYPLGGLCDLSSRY

Chain of hMC-5R (human), P33032 (P33032 whole entry): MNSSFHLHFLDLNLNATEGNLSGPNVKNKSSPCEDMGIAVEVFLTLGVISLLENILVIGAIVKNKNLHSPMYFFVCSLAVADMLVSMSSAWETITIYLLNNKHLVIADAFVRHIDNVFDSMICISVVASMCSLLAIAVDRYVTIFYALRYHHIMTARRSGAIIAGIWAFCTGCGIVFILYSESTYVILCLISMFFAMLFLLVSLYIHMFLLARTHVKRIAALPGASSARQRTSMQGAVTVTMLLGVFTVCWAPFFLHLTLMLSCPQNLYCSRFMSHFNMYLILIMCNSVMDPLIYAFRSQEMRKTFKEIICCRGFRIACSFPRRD
Chain of hMC-3R (human), P41968 (P41968 whole entry): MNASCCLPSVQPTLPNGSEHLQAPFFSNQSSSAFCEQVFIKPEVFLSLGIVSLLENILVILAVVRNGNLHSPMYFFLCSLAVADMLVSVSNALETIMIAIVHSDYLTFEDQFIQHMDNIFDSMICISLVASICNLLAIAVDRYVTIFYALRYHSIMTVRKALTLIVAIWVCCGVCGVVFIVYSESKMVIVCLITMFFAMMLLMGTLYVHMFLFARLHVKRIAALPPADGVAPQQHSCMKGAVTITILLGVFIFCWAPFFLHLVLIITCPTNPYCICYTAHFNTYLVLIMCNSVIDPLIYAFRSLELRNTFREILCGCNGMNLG

Regarding SYSMEHFRWGKPVGKKRRPVKVYPNGAEDESAEAFPLEF [ACTH1-39, P01189], the IC50 in the test with hMC-4R (human), P32245 was determined as 6 nM; with hMC-5R (human), P33032, 0.4 nM; in the test with rhMC-4R (rhesus monkey) it was 1.3 nM; in the test with hMC-3R (human), P41968, 6 nM.
On to SYSMEHFRWGKPV [alpha-MSH, P01189], for which the IC50 with rhMC-4R (rhesus monkey) came out at 27 nM.
